We go through two molecules from publication PMC12470901, “Bioelectrocatalyst for O2 Reduction Based on a Novel Recombinant Two-Domain Laccase from Streptomyces ochraceisleroticus Immobilized on Naphthyl-Modified MWCNTs” (International Journal of Molecular Sciences, 2025).

For series [1], the target named is T1, SoSL (Ac-651) (Streptomyces ochraceiscleroticus, UniProt A0ABW1MU60).
T1 construct: gene ACFP4F_27515
T1 sequence (A0ABW1MU60 37-329): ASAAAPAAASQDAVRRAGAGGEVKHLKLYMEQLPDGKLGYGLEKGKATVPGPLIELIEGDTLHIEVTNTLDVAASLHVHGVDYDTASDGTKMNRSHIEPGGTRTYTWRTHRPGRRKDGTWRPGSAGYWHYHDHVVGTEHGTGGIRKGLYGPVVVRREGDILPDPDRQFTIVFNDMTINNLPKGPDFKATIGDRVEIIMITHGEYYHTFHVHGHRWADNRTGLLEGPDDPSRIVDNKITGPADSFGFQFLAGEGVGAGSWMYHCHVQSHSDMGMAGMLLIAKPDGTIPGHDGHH
The settings on record: pH 3.7; inhibitor.

Substrate in series [2]: CCn1c(=NN=c2sc3cc(S(=O)(=O)O)ccc3n2CC)sc2cc(S(=O)(=O)O)ccc21
The series is described as follows: purified protein. The class given is biochemical, Streptomyces ochraceiscleroticus. The note with it: pH 3.5, 30 °C, 50 mM Britton–Robinson buffer, free enzyme (b72 lists the two pH values in reversed order).

Substrate in series [3]: COc1cccc(OC)c1O
The series is described as follows: purified protein. It is filed as biochemical, Streptomyces ochraceiscleroticus. The settings on record: pH 9.0, 30 °C, 50 mM Britton–Robinson buffer, free enzyme (b72 lists the two pH values in reversed order).

With `F` [sodium fluoride], in series [1], the “10 mM” value is recorded as 67.8 ± 0.6%.

B1: SoSL (Ac-651) (Streptomyces ochraceiscleroticus) (protein)
chain: ASAAAPAAASQDAVRRAGAGGEVKHLKLYMEQLPDGKLGYGLEKGKATVPGPLIELIEGDTLHIEVTNTLDVAASLHVHGVDYDTASDGTKMNRSHIEPGGTRTYTWRTHRPGRRKDGTWRPGSAGYWHYHDHVVGTEHGTGGIRKGLYGPVVVRREGDILPDPDRQFTIVFNDMTINNLPKGPDFKATIGDRVEIIMITHGEYYHTFHVHGHRWADNRTGLLEGPDDPSRIVDNKITGPADSFGFQFLAGEGVGAGSWMYHCHVQSHSDMGMAGMLLIAKPDGTIPGHDGHH
notes: TAT signal peptide removed (lacks 36 N-terminal residues of 329), pQE-30 His-tag, E. coli M15 [pREP4], Ni-sepharose; 33 kDa computed, ~35 kDa SDS-PAGE; trimeric
For B1, the Km (usually the substrate concentration at which the rate is half of its maximum) came to 50 µM in series [2] and 760 µM in series [3]. Also, the catalytic constant (kcat) (in general, the number of substrate molecules converted per active site and unit of time at saturation) turned out to be 106 s⁻¹ in series [2] and 0.11 s⁻¹ in series [3].
